Reference: article PMC10572780, “MucR from Sinorhizobium meliloti: New Insights into Its DNA Targets and Its Ability to Oligomerize” (International Journal of Molecular Sciences, 2023)

Legend:
rMucR (recombinant MucR) [1] = biological target: T1, rMucR (recombinant MucR) (Sinorhizobium meliloti 1021, UniProt P55323 1-143); test: EMSA; 10 pmol DNA; 25 mM HEPES pH 7.9, 50 mM KCl, 6.25 mM MgCl2, 5% glycerol; 10 min on ice (plus 10 min on ice after competitor); 5% polyacrylamide gel, 0.5x TBE, room temperature, 200 V, 70 min; conditions: protein: recombinant; tags: none (pET22b+, NdeI/XhoI, native stop codon in reverse primer); chain copies: 10
T1 sequence: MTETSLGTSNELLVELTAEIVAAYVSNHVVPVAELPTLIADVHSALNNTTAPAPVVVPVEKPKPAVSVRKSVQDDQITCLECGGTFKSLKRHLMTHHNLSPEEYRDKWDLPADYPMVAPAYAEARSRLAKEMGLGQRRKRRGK

rMucR (recombinant MucR) [2] = biological target: T1, rMucR (recombinant MucR); test: EMSA; minimal length with detectable binding; 25 mM HEPES pH 7.9, 50 mM KCl, 6.25 mM MgCl2, 5% glycerol; 10 min on ice (plus 10 min on ice after competitor); 5% polyacrylamide gel, 0.5x TBE, room temperature, 200 V, 70 min; conditions: protein: recombinant; tags: none (pET22b+, NdeI/XhoI, native stop codon in reverse primer); chain copies: 10
rMucR (recombinant MucR) [3] = biological target: T1, rMucR (recombinant MucR); test: competition; vs FAM-rem site3; 5-, 10-, 20-fold excess; does not effectively compete; 25 mM HEPES pH 7.9, 50 mM KCl, 6.25 mM MgCl2, 5% glycerol; 10 min on ice (plus 10 min on ice after competitor); 5% polyacrylamide gel, 0.5x TBE, room temperature, 200 V, 70 min; conditions: protein: recombinant; tags: none (pET22b+, NdeI/XhoI, native stop codon in reverse primer); chain copies: 10
rMucR (recombinant MucR) [4] = biological target: T1, rMucR (recombinant MucR); test: EMSA; 20 pmol rMucR, 10 pmol DNA, no competitor; 25 mM HEPES pH 7.9, 50 mM KCl, 6.25 mM MgCl2, 5% glycerol; 10 min on ice (plus 10 min on ice after competitor); 5% polyacrylamide gel, 0.5x TBE, room temperature, 200 V, 70 min; conditions: protein: recombinant; tags: none (pET22b+, NdeI/XhoI, native stop codon in reverse primer); chain copies: 10; label: FAM
[5] = biological target: the molecule itself; test: SEC-MALS; samples at 1 mg/mL on Superdex 200 in the buffer of the final purification step, 0.5 mL/min; MiniDAWN Treos; higher-order oligomer, no monomer or lower-order oligomers seen
native MucR = biological target: T2, native MucR (Sinorhizobium meliloti 1021, UniProt P55323 2-143); test: EMSA; 25 mM HEPES pH 7.9, 50 mM KCl, 6.25 mM MgCl2, 5% glycerol; 10 min on ice (plus 10 min on ice after competitor); 5% polyacrylamide gel, 0.5x TBE, room temperature, 200 V, 70 min; conditions: protein: native; tags: none
T2 sequence: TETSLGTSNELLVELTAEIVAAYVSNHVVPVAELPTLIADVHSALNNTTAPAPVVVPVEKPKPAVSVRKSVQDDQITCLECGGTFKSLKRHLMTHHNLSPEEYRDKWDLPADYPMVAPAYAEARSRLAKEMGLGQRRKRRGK

B1: rem site3 (dsDNA)
DNA 1: CACGCAATTCTTAATCAACTATTAAAATCC
DNA 2: GGATTTTAATAGTTGATTAAGAATTGCGTG
- binding result (rMucR (recombinant MucR) [1]): binds

B2: rem site3 18 bp (dsDNA)
DNA 1: ATTCTTAATCAACTATTA
DNA 2: TAATAGTTGATTAAGAAT
- binding result (rMucR (recombinant MucR) [2]): binds

B3: rem site3 mut2 (dsDNA)
DNA 1: CGCGCGGCCCCCGGCCGGCCGCCGGGGCCC
DNA 2: GGGCCCCGGCGGCCGGCCGGGGGCCGCGCG
- binding result (rMucR (recombinant MucR) [3]): no binding

B4: FAM-labeled rem site3 (dsDNA)
DNA 1: B1 DNA 1
DNA 2: B1 DNA 2
- binding result (rMucR (recombinant MucR) [4]): binds

B5: recombinant S. meliloti MucR (natural protein, Sinorhizobium meliloti 1021, UniProt P55323 1-143, looked up)
chain: T1 sequence
notes: Expressed with 100 uM zinc sulfate; Oligomer by SEC-MALS corresponds to a decamer (9 to 12 protomers not excluded); also called rMucR; recombinant MucR; source: E. coli BL21(DE3), pET22b+, purified (cation exchange chromatography, size exclusion chromatography); copies: 10
- stoichiometry N [5]: 10

B6: rem site1 (dsDNA)
DNA 1: ATCACCTACTAGATATAGGCCCAAATCGGC
DNA 2: GCCGATTTGGGCCTATATCTAGTAGGTGAT
- binding result (rMucR (recombinant MucR) [1]): binds

B7: rem site2 (dsDNA)
DNA 1: CATCATGTTAGTGGTAAGGTTAACGATCAC
DNA 2: GTGATCGTTAACCTTACCACTAACATGATG
- binding result (rMucR (recombinant MucR) [1]): binds

B8: ndvA upstream region oligonucleotide (dsDNA)
DNA 1: GATAATTCTTCATATCACGCCCGGTCTTGCAGGAAACCTGCAAAAACTCGGAGTCGAGGCATCAAGATAGCTAACGATGAATCAT
DNA 2: ATGATTCATCGTTAGCTATCTTGATGCCTCGACTCCGAGTTTTTGCAGGTTTCCTGCAAGACCGGGCGTGATATGAAGAATTATC
- binding result (native MucR): binds

B9: MucR purified from S. meliloti (natural protein, Sinorhizobium meliloti 1021, UniProt P55323 2-143, looked up)
chain: T2 sequence
notes: MucR from Sinorhizobium meliloti 1021, naturally expressed; 9 to 12 protomers not excluded; also called native MucR; naturally expressed MucR; source: endogenous, purified from S. meliloti 1021 (cation exchange chromatography, size exclusion chromatography); copies: 10
- stoichiometry N [5]: 10
